According to paper doi:10.1101/2025.06.13.659517, “Analysis of apo and citraconate-bound hACOD1 (hIRG1) by X-ray crystallography and NMR spectroscopy: Structural insights for developing chemotherapeutic agents” (bioRxiv, 2025):

Assays:
[1] = target: the molecule itself; test: crystal structure; crystals of apo and citraconate-bound hACOD1 (4-461) grown in conditions containing calcium acetate; solved by molecular replacement with PDB 6R6U; two protomers (chains A and B) form the dimer
purified protein = substrate: O=C(O)/C=C(/CC(=O)O)C(=O)O; test: purified protein; assay type: biochemical, Homo sapiens; settings: active site

B1: Human aconitate decarboxylase 1 (hACOD1), residues 4-461 (enzyme, UniProt A6NK06 4-461, looked up)
chain: KSITESFATAIHGLKVGHLTDRVIQRSKRMILDTLGAGFLGTTTEVFHIASQYSKIYSSNISSTVWGQPDIRLPPTYAAFVNGVAIHSMDFDDTWHPATHPSGAVLPVLTALAEALPRSPKFSGLDLLLAFNVGIEVQGRLLHFAKEANDMPKRFHPPSVVGTLGSAAAASKFLGLSSTKCREALAIAVSHAGAPMANAATQTKPLHIGNAAKHGIEAAFLAMLGLQGNKQVLDLEAGFGAFYANYSPKVLPSIASYSWLLDQQDVAFKRFPAHLSTHWVADAAASVRKHLVAERALLPTDYIKRIVLRIPNVQYVNRPFPVSEHEARHSFQYVACAMLLDGGITVPSFHECQINRPQVRELLSKVELEYPPDNLPSFNILYCEISVTLKDGATFTDRSDTFYGHWRKPLSQEDLEEKFRANASKMLSWDTVESLIKIVKNLEDLEDCSVLTTLLKGP
notes: The tag actually on the construct is therefore uncertain; also called hIRG1; hACOD1 (4-461); source: E. coli BL21-CodonPlus (RIPL), purified (StrepTactin column, TEV protease, SEC)
stoichiometry N [1]: 2 | Km (purified protein): 9.3 ± 2.1 mM
